Laboratory results from patent US20010016194A1 (published 2001).

Experiments:
[1] = biological target: T1, Raf-1 proteins present in human T-cell lysates (human, UniProt P04049 1-648); test: anti-FLAG bead pull-down from T-cell lysate, anti-Raf-1 immunoblot
T1 construct: Endogenous protein within a cell lysate, so other lysate proteins were present; also called T-cell derived Raf-1 proteins; cellular Raf-1 serine/threonine kinase

[2] = biological target: T1, Raf-1 proteins present in human T-cell …; test: anti-FLAG affinity column pull-down from 35S-labelled human T-cell lysate, anti-SP-63 immunoblot
(His)6-Raf-1 protein = biological target: T2, (His)6-Raf-1 protein (UniProt P04049 1-648, limits assumed); test: totally cell-free pull-down on anti-FLAG beads, anti-Raf-1 immunoblot
T2 construct: Made in M15 bacteria and purified on Ni-NTA, or used as bacterial lysate; also called bacterially produced (His)6-Raf-1
Source text: Eluted proteins were separated on SDS-PAGE, transferred onto Immobilon membrane and blotted with anti-Raf-1 antibody.

B1: FLAG-HMK-IL-2Rβ chain containing only the proline rich C-terminal (CT+) (receptor)
chain: QPLSGEDDAYCTFPSRDDLLLFSPSLLGGPSPPSTAPGGSGAGEERMPPSLQERVPRDWDPQPLGPPTPGVPDLVDFQPPPELVLREAGEEVPDAGPREGVSFPWSRPPGQGEFRALNARLPLNTDAYLSLQELQGQDPTHLV
notes: How it was constructed is not described; also called FLAG-HMK-IL-2Rβ chain CT+ proteins; not shown: 17 amino acid FLAG-HMK tag
**Q.** Does B1 bind [1]?
**A.** no binding

B2: FLAG-HMK-IL-2Rβ chain cytoplasmic domain wild type fusion protein (receptor, not shown: small tags and cut ends)
chain: NCRNTGPWLKKVLKCNTPDPSKFFSQLSSEHGGDVQKWLSSPFPSSSFSPGGLAPEISPLEVLERDKVTQLLLQQDKVPEPASLSSNHSLTSCFTNQGYFFFHLPDALEIEACQVYFTYDPYSEEDPDEGVAGAPTGSSPQPLQPLSGEDDAYCTFPSRDDLLLFSPSLLGGPSPPSTAPGGSGAGEERMPPSLQERVPRDWDPQPLGPPTPGVPDLVDFQPPPELVLREAGEEVPDAGPREGVSFPWSRPPGQGEFRALNARLPLNTDAYLSLQELQGQDPTHLV
notes: Made in BL-21 pLysS bacteria, about 33 kDa; also called FLAG-HMK-IL-2Rβ chain wild type (WT); FLAG-HMK-IL-2Rβ-WT
**Q.** Does B2 bind [2]?
**A.** binds

B3: FLAG-HMK-IL-2Rβ chain mutant lacking both acidic domain and proline rich C-terminal (A-CT-) (receptor)
chain: NCRNTGPWLKKVLKCNTPDPSKFFSQLSSEHGGDVQKWLSSPFPSSSFSPGGLAPEISPLEVLERDKVTQLLL
notes: How it was constructed is not described; also called FLAG-HMK-IL-2Rβ S+; not shown: 17 amino acid FLAG-HMK tag
**Q.** Does B3 bind [1]?
**A.** no binding

**Q.** Does B3 bind ((His)6-Raf-1 protein)?
**A.** no binding
